According to article PMC3670934, “Milligram Production and Biological Activity Characterization of the Human Chemokine Receptor CCR3” (PLoS ONE, 2013):

B1: Human chemokine receptor CCR3 with a C-terminal 10-His tag (receptor, UniProt P51677 1-355, looked up)
chain: MTTSLDTVETFGTTSYYDDVGLLCEKADTRALMAQFVPPLYSLVFTVGLLGNVVVVMILIKYRRLRIMTNIYLLNLAISDLLFLVTLPFWIHYVRGHNWVFGHGMCKLLSGFYHTGLYSEIFFIILLTIDRYLAIVHAVFALRARTVTFGVITSIVTWGLAVLAALPEFIFYETEELFEETLCSALYPEDTVYSWRHFHTLRMTIFCLVLPLLVMAICYTGIIKTLLRCPSKKKYKAIRLIFVIMAVFFIFWTPYNVAILLSSYQSILFGNDCERSKHLDLVMLVTEVIAYSHCCMNPVIYAFVGERFRKYLRHFFHRHLLMHLGRYIPFLPSEKLERTSSVSPSTAEPELSIVF
notes: human chemokine receptor CCR3; theoretical molecular weight with the tag 42 kDa; The form full length is read from the printed primers (start codon to the last codons of the gene, then tag and stop); By the reverse primer two glycine codons seem to lie between the last CCR3 residue and the ten histidines (surmised from the primer); also called hCCR3; source: also in detergent cell lysate; not …

Legend:
[1] = target: B1; test: SPR; Biacore T100; His-tagged hCCR3 immobilised on a Ni-activated NTA sensor chip, chemokine flowed at 30 µl/min; 25°C; 10 mM HEPES, 0.15 M NaCl, 0.1% (wt/vol) DDM, pH 7.4; hCCR3 purified in DDM; 1:1 binding model, KD = kd/ka; conditions: both partners purified
[2] = target: B1; test: SPR; Biacore T100; His-tagged hCCR3 immobilised on a Ni-activated NTA sensor chip, chemokine flowed at 30 µl/min; 25°C; 10 mM HEPES, 0.15 M NaCl, 0.1% (wt/vol) FC-14, pH 7.4; hCCR3 purified in FC-14; 1:1 binding model, KD = kd/ka; conditions: both partners purified
[3] = target: B1; test: as above; conditions: both partners purified; remark: listed apart in the source
[4] = target: B1; test: SPR; Biacore T100; His-tagged hCCR3 immobilised on a Ni-activated NTA sensor chip, chemokine flowed at 30 µl/min; 25°C; 10 mM HEPES, 0.15 M NaCl, 0.1% (wt/vol) DDM, pH 7.4; hCCR3 purified in DDM; 1:1 binding model, KD = kd/ka; conditions: both partners purified; remark: listed apart in the source
[5] = target: the molecule itself; test: SDS-PAGE and western blot; hCCR3 after Ni affinity chromatography in FC-14; 4-12% NuPAGE Bis-Tris gel, LDS sample buffer with reducing agent, not heated; anti-His blot; bands at about 34, 58, 82 and 115 kDa

| Kd [1] [nM] | Kd [2] [nM] | koff [2] [s⁻¹] | kon [2] [M⁻¹ s⁻¹] | kon [3] [M⁻¹ s⁻¹] | Kd [4] [nM] | koff [4] [s⁻¹] | kon [4] [M⁻¹ s⁻¹] | Binder | binding result [5] |
| --- | --- | --- | --- | --- | --- | --- | --- | --- | --- |
| 730 | – | – | – | – | – | – | – | commercial recombinant human CCL11 (PeproTech) (ligand, recombinant human chemokine CCL11, bought; No catalogue number printed; probably the mature chemokine (surmised); also called CCL11 from PeproTech; commercial CCL11; source: bought: PeproTech (USA)) not shown | – |
| – | 1600 | 0.037 | 22000 | 23000 | 58 | 0.003 | 51000 | CCL24 (eotaxin-2), home-made recombinant (ligand, human, UniProt O00175 27-119, looked up, CCL24 (eotaxin-2), endogenous ligand of human CCR3; The detailed protocol is said to be submitted in a separate manuscript; Probably the mature chemokine without its signal peptide (surmised); also called eotaxin-2/CCL24; home-made CCL24) VVIPSPCCMFFVSKRIPENRVVSYQLSSRSTCLKAGVIFTTKKGQQFCGDPKQEWVQRYMKNLDAKQKKASPRARAVAVKGPVQRYPGNQTTC | – |
| 210 | – | – | – | – | – | – | – | commercial recombinant human CCL24 (PeproTech) (ligand, UniProt O00175 27-119, looked up, recombinant human chemokine CCL24, bought; No catalogue number printed; probably the mature chemokine (surmised); also called CCL24 from PeproTech; commercial CCL24; source: bought: PeproTech (USA)) VVIPSPCCMFFVSKRIPENRVVSYQLSSRSTCLKAGVIFTTKKGQQFCGDPKQEWVQRYMKNLDAKQKKASPRARAVAVKGPVQRYPGNQTTC | – |
| – | 1300 | 0.063 | 49000 | – | 70 | 0.017 | 250000 | CCL11 (eotaxin), home-made recombinant (ligand, CCL11 (eotaxin), endogenous ligand of human CCR3; The detailed protocol is said to be submitted in a separate manuscript; Probably the mature chemokine without its signal peptide (surmised); also called eotaxin/CCL11; home-made CCL11) not shown | – |
| – | – | – | – | – | – | – | – | B1 | binds |
